Measurements published in the RNAGym collection of RNA variant scans (doi:10.1073/pnas.2313332121).

B1: TPR t1 (parent)
chain: GACCAAUCUGCCCUCAGAGCUCGAGAACAUCUUCGGAUGCAGAGGAGGCAGGCUUCGGUGGCGCGAUAGCGCCAACGUCCUCAACCUCCAAUGCAUCCCACCACAUGAUGAUGCCUGAAGAGCCUUGGUUUUUUG

Variants of: B1
Assay: polymerase ribozyme fitness, log enrichment relative to wild type (log ratio); higher = more active; in vitro selection for triplet polymerase activity
Method in brief: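 A heterodimeric triplet polymerase ribozyme had each of its subunits mutagenized by PCR into a library, which was transcribed. One round of in vitro selection, done in triplicate, annealed each library with a biotinylated primer, its partner subunit and triplets, then incubated it frozen at −7 °C before gel excision of extended constructs, streptavidin-bead capture and RT-PCR. Fitness is the logarithm of genotype enrichment relative to wild-type enrichment, based on Illumina sequencing of inputs and outputs and inverse-variance-weighted replicate averages. A base-2 logarithm is used, and genotypes were kept only with ≥10 input reads and ≥1 read per output.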

Variant | polymerase ribozyme fitness (log ratio)
G19C A66C C114U U116C | -3.53
A43U G135U | -0.971
G17A G113U | -3.81
C70U G113A | -1.39
G47C G77U A100U | -1.79
C11A C82G C101A A121C | -0.28
A6U C53A C62A C97U G113A | -3.13
G42A G120U | -1.82
C22G A27C C56G G120C | -4.73
G10U C11G G52U U109C C114U | -5.43
C56A C97G | -4.2
C12G A24G A41U G57C G110A | -5.76
C40U G52A C53U C124A | 0.594
C86U C98A | -4.48
C72U U81A A91U A118U | -3.42
C3U A46C C56U A121U | 1.54
U55G G61C | -1.85
C79U A111U A121U | -3.62
C72G C85U | -1.45
C4G A5U C76U | -2.75
C3U C28U | -2.28
G42A C98U | -2.55
A18G C20U G93U U109A C115A | -5.78
A43U G69A | -5.69

Variant | polymerase ribozyme fitness (log ratio)
U14A C72U C85A G93A | -3.6
U59A A105G G113A U130C G135U | -5.1
C8A U132A | 0.369
G71U C104A U126C | -3.21
U78C U116G G117A | -2.14
G17A C56G | -3.4
C73U G120U | 0.0471
G45A U59C C86A | -3.96
A46G G47U | -1.31
G52C U55C | -0.101
G65U C73U | -5.34
U21C U54C G63C C80A A105C C115U A118C | -7.47
U109A U112A | -4.47
C8A G17C G63U U96C C97A G113U | -6.74
G10C C12A A83C C124G | 1.04
G69C G117U | -3.02
U125G | -1.01
C12U G60C C123G | 1.46
A5U A41U C64U G120C | -1.19
G51A A90G G113C | -5.54
C12G A43G C79A U112A G117C | -4.33
C8U C11G C70U G93A | 0.0777
G44U C88A U133G | -1.73
A66C U78C | -1.36

Variant | polymerase ribozyme fitness (log ratio)
U9G C13U C15A C40U G61C | -2.7
C13A A43G C70G U116C G117U | -6.51
U7A C86G | -0.205
A83C U106A C123U | 1.46
U9A G113A U130G | -0.107
G48U G65U | -6.34
A6U C53U C73U | 0.296
C13G C79A C86A | -5.8
A16C U55G C123G | -0.307
U7A G10C C72U | -0.8
C56U U78A | -0.32
A29G G39U C85U C89U | -4.23
C11A A16U C40U C56A | -4.65
C15A A29C U78A | -4.3
G44U G120U U131A | -1.89
C49A C114U | -1.61
C72G G77C U78C A105G A119G | -2.47
C20A U54G C94U | -3.21
A46U C62U C86A A100U C104A G110C U134G | -5.64
C8U U112A | 1.33
C8A C20U A105G U112C G113A | -0.707
C8U C15U G57U C82U U112A A118G | 0.233
C73A C94A C102A | -2.96
U112G C123G | 0.429

Variant | polymerase ribozyme fitness (log ratio)
C88A G113A | -1.6
G51A G71U G77U | -3.39
C11A C12U G61U A100U | -1.23
U78C A100U U125G | -1.3
U9G C34A C73A G120C | -0.727
C15U A29U | -3.13
C4U G71A | -0.833
C12G G63C | -1.09
C85G U112A | 0.357
C82A U116C C123A | -2.84
G36U G71A | -1.86
C8G G45A A84G C89U G117A | -2.7
G63A U78C C123A | -0.604
C13A C124A | 0.0418
A90U U92C U96C | -2.06
G58A A91C C101A C123G | -1.04
C70U G110U G135U | -3.77
G93U G110U | -2.46
A27U C53U | -2.7
A6U G52A U116C | -1.36
C8A A41U G57A C104A | -5.75
G48A U131A | -0.843
A18C U131A | -2.1
G42C C49A | -1.88

Variant | polymerase ribozyme fitness (log ratio)
C56G U81G | -2.07
G60U C114U C123U | -3.67
C49U U55G G63A | -1.98
C8G C89A | -1.01
G10A U38G G48C C79A | -4.53
A6U C13U C72A | 0.0717
C22G G113C | -5.28
C97U U109A | -2.09
C56U C79A G113U | -4.28
C11G G19C | -2.06
C20G G61A | -3.66
G19A C70G G113U | -5.75
U9G G61A C97U A100C A108G | -2.88
A43C C56A | -2.98
C56U G69U | -1.78
A43C C49U | -3.72
C22U C76A | -3.53
A2U A50U C72G | -4.02
C22A A111C | -4.49
G71A C85G | -2.38
G69U C82U A111C U112A G122C | -0.869
C3U U78C | 0.0101
A29G A103C U106A | -5.73
U55G C56G A68G | -5.14

Variant | polymerase ribozyme fitness (log ratio)
C62U A74U U78C G120A | -0.246
C20A C40A C115A | -4.58
C53U G63A U81A | -2.54
C15U G39C G69U C94U C115U C123A G135U | -1.89
C72G C98A C101U G110U G120U C123G U130G | -6.41
A6C G71C C82A U112A A118U | -0.912
G25A G47U A100U G110U U112A | -6.61
A46U A74G C101A | -3.42
C72G C86G | -2.24
C13U G120C C124U | 1.91
C15U C70G C97U | -3.09
C11G G57U G120A | 1.4
G19U C20A C72G G77C A91C C94A U106A | -5.31
C28A G44A G48A C73U U106A | -5.87
G10C C12A U54C G122A | 0.0391
C56U G65U C114U | -6.33
U32C G47U G48U G113C | -3.38
A5G G42U C80A | -5.11
C31U A37U C49G A84U C104U G113U U133G | -6.55
C3G U7A C40A G44A A111U | -5.51
G48C U131A | -1.82
C13G C56G C72G C88A G110C | -6.47
G60A G69U A121C G122U | -0.0689
C88A C123G | 1.69

Variant | polymerase ribozyme fitness (log ratio)
C72A C124U | 1.25
C4A C11G A16G G36C C56U G113U | -2.81
C79A G117U G120C | -3.42
G42U U54A G110U U133G | -4.37
A68G A103C | -5.02
C8G A46U G52U C56A C82U C101A | -1.86
A41G C104A G113C | -3.19
C40G G135U | -1.71
C89U G110U | -2.22
U32C U109G | -4.99
A6U C72A C85U A90G G107U U112A | -4.8
G35A C62A A119G | -4.46
C12U A74C C79U A121U | 1.34
U55G C70U C89A C104U | -2.38
A2U G10A | -2.85
C20U G45C | -3.07
A46U G110C | -4.29
U38G C70U U125G | -2.25
G61U U78C C88U U130G | -0.822
C22G A27C | -4.37
C8G C12G C114G | -2.57
C56A U129A | -1.22
A103U | -4.71
